One data set addresses GFP-PICK1 BAR domain. Briefly: cross-linking; HEK293 cells in 2 ml PBS with 0.3 mM DSS for 20 min at room temperature, quenched with 50 mM Tris, lysed, Western blot (anti-GFP or anti-PICK1); for untagged PICK1 after 5 min with 3 μM ionomycin and a range of extracellular CaCl2.
Data set [1] concerns the molecule itself. The data set is described as above.
Data set [2] concerns the molecule itself. The data set can be described thus: cross-linking; 100 nM purified his6 protein in 150 mM NaCl, 20 mM HEPES pH 7.4, 5 mM HEDTA, CaCl2 to give [Ca2+]free of 0, 2, 5, 12, 26 μM; 10 μM DSS for 20 min at room temperature, quenched with 50 mM Tris; Western blot with anti-PICK1.

Regarding “GFP-PICK1 BAR domain (domain or fragment)”, the stoichiometry N with GFP-PICK1 BAR domain was 2.

B1: GFP-Endophilin A1 (natural protein, UniProt Q99962 1-352, looked up)
chain: MSVAGLKKQFHKATQKVSEKVGGAEGTKLDDDFKEMERKVDVTSRAVMEIMTKTIEYLQPNPASRAKLSMINTMSKIRGQEKGPGYPQAEALLAEAMLKFGRELGDDCNFGPALGEVGEAMRELSEVKDSLDIEVKQNFIDPLQNLHDKDLREIQHHLKKLEGRRLDFDYKKKRQGKIPDEELRQALEKFDESKEIAESSMFNLLEMDIEQVSQLSALVQAQLEYHKQAVQILQQVTVRLEERIRQASSQPRREYQPKPRMSLEFPTGDSTQPNGGLSHTGTPKPSGVQMDQPCCRALYDFEPENEGELGFKEGDIITLTNQIDENWYEGMLHGHSGFFPINYVEILVALPH
notes: Endophilin A1, BAR domain protein; plasmid a gift from Dr. Ira Milosevic; The methods name only one 'GFP-endophilin'; source: HEK293, transfected, cross-linked in cells, in lysate
Consider B1, for which the “stoichiometry N” value in data set [1] amounted to 2.

B2: his6ΔNT-PICK1 (natural protein, UniProt Q9EP80 1-416, looked up)
chain: MFAKLGIPTVPGKVTLQKDAQNLIGISIGGGAQYCPCLYIVQVFDNTPAALDGTVAAGDEITGVNGRSIKGKTKVEVAKMIQEVKGEVTIHYNKLQADPKQGMSLDIVLKKVKHRLVENMSSGTADALGLSRAILCNDGLVKRLEELERTAELYKGMTEHTKNLLRAFYELSQTHRAFGDVFSVIGVREPQPAASEAFVKFADAHRSIEKFGIRLLKTIKPMLTDLNTYLNKAIPDTRLTIKKYLDVKFEYLSYCLKVKEMDDEEYSCIALGEPLYRVSTGNYEYRLILRCRQEARARFSQMRKDVLEKMELLDQKHVQDIVFQLQRFVSTMSKYYNDCYAVLRDADVFPIEVDLAHTTLAYGPNQGGFTDGEDEEEEEEDGAAREVSKDARGATGPTDKGGSWCDS
notes: source: E. coli BL21(DE3), pET28, purified (Ni-NTA)
On to B2, for which the “stoichiometry N” value in data set [2] amounted to 2.

B3: Amphiphysin2-GFP (natural protein, UniProt O00499 1-593, looked up)
chain: MAEMGSKGVTAGKIASNVQKKLTRAQEKVLQKLGKADETKDEQFEQCVQNFNKQLTEGTRLQKDLRTYLASVKAMHEASKKLNECLQEVYEPDWPGRDEANKIAENNDLLWMDYHQKLVDQALLTMDTYLGQFPDIKSRIAKRGRKLVDYDSARHHYESLQTAKKKDEAKIAKPVSLLEKAAPQWCQGKLQAHLVAQTNLLRNQAEEELIKAQKVFEEMNVDLQEELPSLWNSRVGFYVNTFQSIAGLEENFHKEMSKLNQNLNDVLVGLEKQHGSNTFTVKAQPSDNAPAKGNKSPSPPDGSPAATPEIRVNHEPEPAGGATPGATLPKSPSQLRKGPPVPPPPKHTPSKEVKQEQILSLFEDTFVPEISVTTPSQFEAPGPFSEQASLLDLDFDPLPPVTSPVKAPTPSGQSIPWDLWEPTESPAGSLPSGEPSAAEGTFAVSWPSQTAEPGPAQPAEASEVAGGTQPAAGAQEPGETAASEAASSSLPAVVVETFPATVNGTVEGGSGAGRLDLPPGFMFKVQAQHDYTATDTDELQLKAGDVVLVIPFQNPEEQDEGWLMGVKESDWNQHKELEKCRGVFPENFTERVP
notes: Amphiphysin 2, BAR domain protein; plasmid a gift from Dr. Emmanuel Boucrot; Called Amphiphysin2-GFP in the methods and ^GFPAmphiphysin in the results and the legend; also called ^GFPAmphiphysin; ^GFPamphiphysin; source: HEK293, transfected, cross-linked in cells, in lysate
As to B3, the “stoichiometry N” value in data set [1] was 2.

B4: his64A-PICK1 (natural protein, UniProt Q9EP80 1-416, looked up)
chain: MFADLDYDIEEDKLGIPTVPGKVTLQKDAQNLIGISIGGGAQYCPCLYIVQVFDNTPAALDGTVAAGDEITGVNGRSIKGKTKVEVAKMIQEVKGEVTIHYNKLQADPKQGMSLDIVLKKVKHRLVENMSSGTADALGLSRAILCNDGLVKRLEELERTAELYKGMTEHTKNLLRAFYELSQTHRAFGDVFSVIGVREPQPAASEAFVKFADAHRSIEKFGIRLLKTIKPMLTDLNTYLNKAIPDTRLTIKKYLDVKFEYLSYCLKVKEMAAAAYSCIALGEPLYRVSTGNYEYRLILRCRQEARARFSQMRKDVLEKMELLDQKHVQDIVFQLQRFVSTMSKYYNDCYAVLRDADVFPIEVDLAHTTLAYGPNQGGFTDGEDEEEEEEDGAAREVSKDARGATGPTDKGGSWCDS
notes: PICK1 with residues 271DDEE274 in the BAR domain substituted by alanines; source: E. coli BL21(DE3), pET28, purified (Ni-NTA)
Consider B4, for which, in data set [2], the “stoichiometry N” value turned out to be 2.

Values taken from article PMC9201945 (Frontiers in Molecular Neuroscience, 2022).
